# Results taken from US20240301049A1 (Ablynx, published 2024).
# Several values for one entry are separate records, joined by “and”; a condition that tells them apart may be missing. Equal values may be shown once.
# T1: human IL11 (human, UniProt P20809 22-199)
# T1 sequence (looked up): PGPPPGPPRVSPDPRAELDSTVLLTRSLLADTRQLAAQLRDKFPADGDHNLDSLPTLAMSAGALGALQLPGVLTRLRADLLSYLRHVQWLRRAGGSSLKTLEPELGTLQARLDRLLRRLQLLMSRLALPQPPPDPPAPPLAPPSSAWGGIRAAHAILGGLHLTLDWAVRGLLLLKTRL
# T2: human IL27 (human, UniProt Q8NEV9 29-243; Q14213 21-229)
# T2 sequence (looked up) 1: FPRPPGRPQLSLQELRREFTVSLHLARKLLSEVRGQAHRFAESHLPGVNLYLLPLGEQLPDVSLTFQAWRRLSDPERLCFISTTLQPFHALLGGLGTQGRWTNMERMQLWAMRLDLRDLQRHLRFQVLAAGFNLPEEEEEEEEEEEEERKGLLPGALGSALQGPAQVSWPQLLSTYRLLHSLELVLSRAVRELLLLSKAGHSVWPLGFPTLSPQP
# T2 sequence (looked up) 2: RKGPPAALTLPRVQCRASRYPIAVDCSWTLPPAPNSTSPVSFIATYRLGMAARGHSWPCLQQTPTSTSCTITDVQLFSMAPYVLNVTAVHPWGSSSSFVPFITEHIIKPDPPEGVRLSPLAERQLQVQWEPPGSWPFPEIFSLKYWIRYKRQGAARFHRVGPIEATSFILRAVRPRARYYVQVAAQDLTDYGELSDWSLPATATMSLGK
# T3: human CD30L (human, UniProt P32971 63-234, limits assumed)
# T3 sequence (looked up): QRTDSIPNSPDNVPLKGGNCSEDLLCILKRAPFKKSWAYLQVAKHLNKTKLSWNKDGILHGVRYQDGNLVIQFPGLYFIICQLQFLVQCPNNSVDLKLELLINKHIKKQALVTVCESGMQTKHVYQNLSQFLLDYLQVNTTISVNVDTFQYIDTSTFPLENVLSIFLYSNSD
# T4: human CNTF (human, UniProt P26441 2-200)
# T4 construct: also called ciliary neurotrophic factor
# T4 sequence (looked up): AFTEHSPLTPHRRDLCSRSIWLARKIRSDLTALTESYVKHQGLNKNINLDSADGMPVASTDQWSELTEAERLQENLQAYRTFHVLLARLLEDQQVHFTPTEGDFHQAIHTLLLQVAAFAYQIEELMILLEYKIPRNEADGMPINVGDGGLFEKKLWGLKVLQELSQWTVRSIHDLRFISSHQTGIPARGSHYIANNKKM
# T5: human IL23 (human, UniProt Q9NPF7 20-189; P29460 23-328)
# T5 sequence (looked up) 1: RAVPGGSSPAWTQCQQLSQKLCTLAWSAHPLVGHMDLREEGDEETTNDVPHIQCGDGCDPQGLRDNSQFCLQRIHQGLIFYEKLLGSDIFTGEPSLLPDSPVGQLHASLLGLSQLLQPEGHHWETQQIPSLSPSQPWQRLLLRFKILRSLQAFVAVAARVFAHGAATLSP
# T5 sequence (looked up) 2: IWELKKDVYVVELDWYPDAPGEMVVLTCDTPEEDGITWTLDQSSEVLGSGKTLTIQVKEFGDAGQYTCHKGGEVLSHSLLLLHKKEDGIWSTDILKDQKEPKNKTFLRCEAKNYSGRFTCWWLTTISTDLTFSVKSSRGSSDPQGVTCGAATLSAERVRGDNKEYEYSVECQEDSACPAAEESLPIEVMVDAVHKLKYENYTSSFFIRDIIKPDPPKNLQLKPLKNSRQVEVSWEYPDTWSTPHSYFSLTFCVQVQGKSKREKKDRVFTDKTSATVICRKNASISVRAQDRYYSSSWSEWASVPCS
# T6: human RANKL (human, UniProt O14788 140-317, limits assumed)
# T6 construct: also called hRANKL
# T6 sequence (looked up): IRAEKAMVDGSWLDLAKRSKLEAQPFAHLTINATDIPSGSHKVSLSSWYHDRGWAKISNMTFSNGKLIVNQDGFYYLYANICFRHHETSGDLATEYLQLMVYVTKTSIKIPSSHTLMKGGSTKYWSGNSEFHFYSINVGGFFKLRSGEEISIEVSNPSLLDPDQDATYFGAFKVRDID
# T7: cyno IL-6 (cynomolgus monkey, UniProt P79341 28-212, limits assumed)
# T7 sequence (looked up): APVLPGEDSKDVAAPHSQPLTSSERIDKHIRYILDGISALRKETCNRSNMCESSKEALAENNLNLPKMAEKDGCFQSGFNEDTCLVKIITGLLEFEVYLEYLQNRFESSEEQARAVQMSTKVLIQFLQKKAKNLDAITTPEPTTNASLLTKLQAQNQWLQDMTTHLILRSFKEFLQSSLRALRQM
# How the values were obtained:
# [1] = target: T8, cyno TNF-α (cynomolgus monkey, UniProt P79337 77-233); assay: cell-based or functional assay
# [2] = target: T9, human membrane TNFα expressed on HEK293H cells (human, UniProt P01375 1-233); assay: flow cytometry, HEK293H cells expressing human membrane TNFα, with 30 µM HSA, 24 h
# T9 construct: whole, on cells; also called membrane expressed TNFα
# Protocol: Briefly, cells were fixed with 4% paraformaldehyde and 0.1% glutaraldehyde in PBS (to increase detection of membrane bound TNFα). […] Cells were washed 3 times and subsequently incubated with an anti-VHH mAb (ABH00119) for 30 min at 4° C., washed again, and incubated for 30 min at 4° C. with a goat anti-mouse or anti-human PE labeled antibody. Samples were washed and resuspended in FACS Buffer (D-PBS with 10% FBS and 0.05% sodium azide supplemented with 5 nM TOPRO3). Cell suspensions were then analyzed on an iQuescreener. EC50 values were calculated using GraphPad Prism.
# [3] = target: T1, human IL11; assay: SPR (ProteOn XPR36), target immobilized
# [4] = target: T2, human IL27; assay: SPR (ProteOn XPR36), target immobilized
# [5] = target: T3, human CD30L; assay: SPR (ProteOn XPR36), target immobilized
# [6] = target: human TRAIL (human, UniProt P50591 114-281, limits assumed); assay: SPR (ProteOn XPR36), target immobilized
# [7] = target: T4, human CNTF; assay: SPR (ProteOn XPR36), target immobilized
# [8] = target: T5, human IL23; assay: SPR (ProteOn XPR36), target immobilized
# [9] = target: T6, human RANKL; assay: SPR (ProteOn XPR36), target immobilized
# [10] = target: human IL-6 (human, UniProt P05231 30-212); assay: cell-based or functional assay
# [11] = target: T7, cyno IL-6; assay: cell-based or functional assay
# [12] = target: human TNF-α (human, UniProt P01375 77-233); assay: cell-based or functional assay
# [13] = target: T8, cyno TNF-α; assay: cell-based or functional assay; remark: listed apart in the source
# T9 sequence (P01375 whole entry): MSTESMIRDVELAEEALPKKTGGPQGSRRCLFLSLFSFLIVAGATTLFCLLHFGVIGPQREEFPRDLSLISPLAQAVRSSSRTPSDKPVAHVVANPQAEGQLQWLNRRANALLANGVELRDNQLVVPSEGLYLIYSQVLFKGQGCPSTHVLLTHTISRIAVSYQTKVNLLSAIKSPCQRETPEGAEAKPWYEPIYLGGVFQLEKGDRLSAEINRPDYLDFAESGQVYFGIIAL
# T8 sequence (P79337 77-233 limits assumed): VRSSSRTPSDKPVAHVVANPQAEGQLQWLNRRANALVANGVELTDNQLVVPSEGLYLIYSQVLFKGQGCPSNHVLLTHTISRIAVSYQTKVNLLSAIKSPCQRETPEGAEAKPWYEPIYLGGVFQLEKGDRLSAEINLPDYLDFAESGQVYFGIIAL
# Sequence of human TNF-α (P01375 77-233 limits assumed): as the sequence (P79337 77-233 limits assumed) above, with V37L, T44R, N72T, L138R counted along it
# Sequence of human TRAIL (P50591 114-281 limits assumed): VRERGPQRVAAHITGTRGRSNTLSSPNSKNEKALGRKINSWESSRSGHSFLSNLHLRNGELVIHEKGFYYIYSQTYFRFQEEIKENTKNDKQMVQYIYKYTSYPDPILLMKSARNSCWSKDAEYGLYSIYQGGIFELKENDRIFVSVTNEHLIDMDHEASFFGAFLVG
binder,measurement,setting,value
"F027201062 (bispecific antibody, anti-IL-6 (17C04, 6B12), anti-HSA (ALB23002), anti-TNF-α (6C11), C-terminal alanine; produced in Pichia pastoris; also called ISVD construct F027201062; Nanobody F027201062) DVQLVESGGGVVQPGGSLRLSCAASGRTFSNYAMAWFRQAPGKEREFVAVISYAGGRTYYADSVKGRFTISRDNAKNTVYLQMNSLRPEDTALYYCAAVDSPLIATHPRGYDYWGQGTLVTVSSGGGGSGGGSEVQLVESGGGVVQPGGSLRLSCAASGFTFRSFGMSWVRQAPGKGPEWVSSISGSGSDTLYADSVKGRFTISRDNSKNTLYLQMNSLRPEDTALYYCTIGGSLSRSSQGTLVTVSSGGGGSGGGSEVQLVESGGGVVQPGGSLRLSCAASGFTLAYYAIGWFRQAPGKEREGVSCISGSVGTTYYADSVKGRFTISRDNAKNTVYLQMNSLRPEDTALYYCVRSSWFDCGVQGRDLGNEYDYRGQGTLVTVSSGGGGSGGGSEVQLVESGGGVVQPGGSLRLSCTASGFTFSTADMGWFRQAPGKGREFVARISGIDGTTYYDEPVKGRFTISRDNSKNTVYLQMNSLRPEDTALYYCRSPRYADQWSAYDYWGQGTLVKVSSA","IC50, HEK293_NFκB-NLucP reporter assay",[1],160 pM and 83.7 pM and 230 pM
same,EC50,[2],0.31 nM and 0.29 nM and 0.36 nM
same,binding result,[3],no binding (tested: 300 nM)
same,binding result,[4],no binding (tested: 300 nM)
same,binding result,[5],no binding (tested: 300 nM)
same,binding result,[6],no binding (tested: 300 nM)
same,binding result,[7],no binding (tested: 300 nM)
same,binding result,[8],no binding (tested: 300 nM)
same,binding result,[9],no binding (tested: 300 nM)
same,Ratio IC50 reference anti-IL-6 mAb1/Nb,[10],2.4 ratio
same,"hIL-6 TF1 proliferation assay (IC50, pM)",[10],134 pM
same,"cyno IL-6 TF1 proliferation assay (IC50, pM)",[11],65 pM
same,Ratio IC50 reference anti-TNF-α mAb/Nb,[12],0.67 ratio
same,"hTNF-α Nfkb assay (IC50, pM)",[12],98 pM
same,"cyno TNF-α NFkb assay (IC50, pM)",[13],193 pM
